From the DeepSol protein solubility set

Test: soluble on expression in E. coli; label from the status in PepcDB or PDB records

Soluble on expression in E. coli, not soluble:
MGSDKIHHHHHHLSPEDYYGSNDFWNQKSQVEMFMTGIHADLRDKYQMPVTLGEFRSEILISDVTSMGEGVYGPPMTNNLLTKDNTGIDDWYEVYPNIMHINLFIRNVDKEIDYLTGTEKSFYLGQAYGLRAYYYFYLYRTFGGVPLETEPKVTEGSIDITQLYKARSTPEETLEFIKEDINKSEAFFNESDKKMSNQYEWSYHATELLKAKIYMWSAKVTTGLPDDDIAGDHIATLTAVDPNNSDLLTAKKALLNLVNQQFELLPNFADLWTPEGKKNKEIIFALCFNKNELTNWGANWFYNVALFTNATDLDGNKYGPDPLKLLTAGPLRYEYKVPFIEIYDKEDTRLDATFFQYMFEGKIRGACWKKLMGHTDGGTHYYDSDVPVYRYADVLLMLAECENGLGAPDKCAAYINEVRKRAYGDKFEQHKYIAGDYADNEWAILQERDKEFVGEGSRWFDLLRLRDSNGKPFVFSVKAHYGSSLPILTEDKAYMMLWPVNVEVLNGDPEIKQTPGYE
MGSDKIHHHHHHLSSPMRLSFLAAAFAAPLVVSASGAGAAEPTRYPLTLQTCGQTITFDRAPSRVVSIGQSSTEILYLLGLADKVVGTALWVGPVIAGYEAVDAKVPRLADNDPSFESVVGKKPDLVTNQYQWQVGPKGVVATNAQFAELKIPVYTSPADCVGKDNSEGGDGLRTSRFTTDLIYQEIEDLARIFDVSERGEVLINDLKAREAAAKKKIASLRSPVSAVFWFSSADLDIDPYVAGSDGAPGYILSVLGITNVIKSEEEWPTVGWETIAKANPTIIVAGEMTRRRFPVDDIAVKKTFLANDPVTRLMPAVQEGRIVPLDAQAMNPTIRTIEGIEVVADAVIKAGLAQ
MGSDKIHHHHHHLTDAEIDASFNPYQAGPTTSPGITPGMKIDKSNAQKFRDIIDPATYALIEQGKLEFPVEETHSIALHPNYIAATKKHSSQVKLGSATGTIEGYVAGRPFPGKPDKSDPRAGEKLAFNYKYAQIVGDSGRIYPFIWQYKDARSGKVERQLEFDFNFLSFKHRTTQLPTADIEPNPSKFYRGIYLKVLSPQDLKNTQLLIQRFDDDTKLDDSYLYLGFQRRVRRLATGQTTDSFLGSDLMIEDFEGYNGRVPDMDWKYVETKVMLLPVYRHSEWKKTEPRDQMGYGQVQFDGQAQCFQNIPWSLRVVHVIEGVPVESRNPIGKRILYMDAQTSIFPIINMYDRKGALWKRWAIGFSDSAYHAPANQAAGIAIYTSASMLDVQAQHCTTLQLRMISDPALSPPSIFSVQNLRGGD
MGSDKIHHHHHHMADNTDNLNSFRALALQVTCHAVNQATDRHEARSLMQNSINRLAQQIAASIAFIGFDCRLIVLPEYFLTGFPMGDSLAGWAEKACIEMAGAEYEALGKIAQKHKIFLAGNAYEVDPNFPGLYFQTCFILDPSGSIVLRYRRLNSLFAPTPHDVWDKYLDCYGLEGVFPVAKTAIGNLAALASEEILYPEVARCLAMRGAEIFVHSTSEVYNKNLTPKDAAKITRAVENMAYVVSANTAGIANIAIPIASADGGSKIIDHRGIVLAETGAGESMAAFAEIDLGALRRDRRRPGLHNLLARQRFELYAESYHQSHFYPANTMLEGEIDRKHFLQTQQATIDRLAQLGII
MGSDKIHHHHHHMAERLGISIRSIYRDIDSLRAQGVRIDASAGLGFQLKEDILLPPVTFNENEAEALFLALEWLKDVPDQAMKSAAVSIYSKLYAVLPEHRKYLIDDMTLGVTHYWHPVDEALVEQVRLAIRKQVKIKVDYCDEHKRISQRSLWPFALGYLHDKVVLAAWCELRQAFRHFRIDRIHDLQMSEEIYPEFKKHLFQRWWKQEMQRTTDKN
MGSDKIHHHHHHMAETSIEWTDVTWNPVAGCTVLTAGCTNCYAMRMAARLEAMGVEKYAGLTRKSGGRAKWTGRIFLDRKALSIPASWSKPRRVFVNSMSDLFHSDVPTDFISDVWKVMAQTPRHTYQILTKRPDRMVEIVPGLAKLRNVWLGTSVEDARVIYRIDKLRQVPAAVRFVSFEPLIGSVSGAGLRNIHWAIVGGESGPKARSMDPAWVDEIESMCRDQGAAFFFKQWGGKNKKAAGRTLNGRLYDEMPAPSMP
